Experimental data from article PMC3776475.

How the values were obtained:
[1] = molecular target: JR-FL SOSIP.R6-IZ-D7324 gp140 expressed in 293T cells (HIV-1 isolate JR-FL (subtype B)); assay: native gel or EMSA
[2] = molecular target: JR-FL SOSIP.R6-IZ-D7324 gp140 expressed in 293S GnTI^-/- cells (HIV-1 isolate JR-FL (subtype B)); assay: SEC
[3] = molecular target: JR-FL SOSIP.R6-IZ-D7324 gp140 expressed in 293S GnTI^-/- cells (HIV-1 isolate JR-FL (subtype B)); assay: native gel or EMSA
[4] = molecular target: KNH1144 SOSIP.R6 MPER gp140 expressed in 293T cells with furin, without kifunensine (HIV-1 isolate KNH1144 (subtype A)); assay: native gel or EMSA
[5] = molecular target: KNH1144 SOSIP.R6 MPER gp140 expressed in 293S GnTI^-/- cells with furin (HIV-1 isolate KNH1144 (subtype A)); assay: SEC
[6] = molecular target: KNH1144 SOSIP.R6 MPER gp140 expressed in 293T cells with furin and kifunensine (HIV-1 isolate KNH1144 (subtype A)); assay: native gel or EMSA

JR-FL SOSIP.R6-IZ-D7324 gp140 expressed in 293T cells
stoichiometry N [1]: 3

JR-FL SOSIP.R6-IZ-D7324 gp140 expressed in 293S GnTI^-/- cells
stoichiometry N [2]: 3 | stoichiometry N [3]: 3

KNH1144 SOSIP.R6 MPER gp140 expressed in 293T cells with furin, without kifunensine (complex)
stoichiometry N [4]: 3

KNH1144 SOSIP.R6 MPER gp140 expressed in 293S GnTI^-/- cells with furin (complex)
stoichiometry N [5]: 3

KNH1144 SOSIP.R6 MPER gp140 expressed in 293T cells with furin and kifunensine (complex)
stoichiometry N [6]: 3
